Target: T1, rhNR10 (human) (UniProt Q8NI17)
T1 sequence (looked up): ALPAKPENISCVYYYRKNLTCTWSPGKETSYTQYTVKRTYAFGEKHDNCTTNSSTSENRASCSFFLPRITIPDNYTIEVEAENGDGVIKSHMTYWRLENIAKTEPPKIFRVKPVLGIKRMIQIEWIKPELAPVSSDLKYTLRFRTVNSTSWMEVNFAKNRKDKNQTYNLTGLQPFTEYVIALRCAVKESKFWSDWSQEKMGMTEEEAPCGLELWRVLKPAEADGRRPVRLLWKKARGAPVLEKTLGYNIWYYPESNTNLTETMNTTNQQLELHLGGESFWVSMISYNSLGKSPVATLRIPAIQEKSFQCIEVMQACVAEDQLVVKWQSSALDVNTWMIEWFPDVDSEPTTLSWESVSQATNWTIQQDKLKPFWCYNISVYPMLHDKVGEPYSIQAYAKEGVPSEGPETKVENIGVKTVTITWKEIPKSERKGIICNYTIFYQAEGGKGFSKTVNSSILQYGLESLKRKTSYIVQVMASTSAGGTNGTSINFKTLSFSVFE
Test: SPR (Biacore T100), antibody captured on Protein A, rhNR10 as analyte; reference H0L0 (H0-M58/L0)

B1: H0L12 (H chain H0-M58, L chain L12) (antibody, V domains shown)
VH: QVQLVQSGAEVKKPGASVKVSCKASGYTFTGYIMNWVRQAPGQGLEWMGLINPYNGGTSYNQKFKGRVTITADESTSTAYMELSSLRSEDTAVYYCARDGYDDGPYTMDYWGQGTLVTVSS
VL: DIQMTQSPSSLSASVGDRVTITCQTSEDIYSFVAWYQQKPGKAPKLLIYNAQTEAQGVPSRFSGSGSGTDFTLTISSLQPEDFATYYCQHHYDSPLTFGGGTKVEIKR
- fold affinity against H0L0: 2 fold
